The target in assay [1] is T1, monkey MSR1 extracellular domain expressed with a N-terminal hexahistidine-myc-myc tag (HMM-mfMSR1) (monkey (Macaca fascicularis)).
T1 chain: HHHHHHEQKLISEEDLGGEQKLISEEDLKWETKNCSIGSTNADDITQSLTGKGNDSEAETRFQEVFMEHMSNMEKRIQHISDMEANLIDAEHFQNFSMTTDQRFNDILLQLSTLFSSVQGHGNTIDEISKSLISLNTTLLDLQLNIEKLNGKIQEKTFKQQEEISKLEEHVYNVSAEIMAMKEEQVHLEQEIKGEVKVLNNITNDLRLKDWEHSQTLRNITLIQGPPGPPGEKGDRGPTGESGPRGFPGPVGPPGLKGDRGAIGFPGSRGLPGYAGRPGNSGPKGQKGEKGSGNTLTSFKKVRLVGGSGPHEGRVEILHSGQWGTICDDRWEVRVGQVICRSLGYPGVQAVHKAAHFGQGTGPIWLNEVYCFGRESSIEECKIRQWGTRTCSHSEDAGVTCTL
In words: SPR Biacore, 25 C, antibody captured.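 Note: rates from 1:1 fit with mass transport limitation of real-time sensorgrams, HEPES-buffered saline with EDTA and Tween-20 at pH 7.4, KD and t½ derived from the kinetic rates.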 In general terms: In SPR one partner is held on a chip, and binding of the other changes the refractive index at the surface.

The target of assay [2] is T2, human MSR1 extracellular domain expressed with a N-terminal nonahistidine tag (His9-hMSR1); R&D Systems, Cat … (human, UniProt P21757 77-451).
T2 construct: extracellular domain; also called His-hMSR1; 9xHis-hMSR1; not shown: N-terminal nonahistidine tag
T2 sequence (looked up): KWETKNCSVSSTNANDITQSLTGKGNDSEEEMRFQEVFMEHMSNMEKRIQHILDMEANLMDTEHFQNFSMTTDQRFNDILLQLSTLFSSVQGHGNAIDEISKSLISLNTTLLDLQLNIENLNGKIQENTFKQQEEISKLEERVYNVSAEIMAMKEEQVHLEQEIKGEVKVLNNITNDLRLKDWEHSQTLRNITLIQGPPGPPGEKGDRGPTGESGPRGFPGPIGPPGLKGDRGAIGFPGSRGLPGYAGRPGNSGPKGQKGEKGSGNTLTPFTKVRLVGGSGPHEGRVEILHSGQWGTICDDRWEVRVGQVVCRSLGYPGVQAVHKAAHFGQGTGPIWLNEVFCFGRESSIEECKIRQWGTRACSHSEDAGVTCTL
In words: SPR Biacore, 25 C, antibody captured.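 Note: rates from 1:1 fit with mass transport limitation of real-time sensorgrams, HEPES-buffered saline with EDTA and Tween-20 at pH 7.4, KD and t½ derived from the kinetic rates.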

Assay [3] concerns the target T1, monkey MSR1 extracellular domain …. In words: SPR Biacore, 37 C, antibody captured.
Protocol: (§1) Binding affinities and kinetic constants of human anti-MSR1 antibodies for different MSR1 reagents were determined by real-time surface plasmon resonance (Biacore 4000). All binding studies were performed in 10 mM HEPES, 150 mM NaCl, 3 mM EDTA, and 0.05% v/v Surfactant Tween-20, pH 7.4 (HBS-ET) running buffer at 25° C. and 37° C.
(§2) The association rate (kₐ) and dissociation rate (kd) were determined by fitting the real-time binding sensorgrams to a 1:1 binding model with mass transport limitation using Scrubber 2.0c curve-fitting software. Binding dissociation equilibrium constant (KD) and dissociative half-life (t½) were calculated from the kinetic rates as:
The target of assay [4] is T2, human MSR1 extracellular domain …. Briefly: SPR Biacore, 37 C, antibody captured.
Protocol: as §1, §2
The target of assay [5] is T3, mouse MSR1 extracellular domain expressed with a N-terminal nonahistidine tag (His9-mMSR1); R&D Systems, Cat … (mouse, UniProt P30204 79-458).
T3 construct: extracellular domain; not shown: N-terminal nonahistidine tag
T3 sequence (looked up): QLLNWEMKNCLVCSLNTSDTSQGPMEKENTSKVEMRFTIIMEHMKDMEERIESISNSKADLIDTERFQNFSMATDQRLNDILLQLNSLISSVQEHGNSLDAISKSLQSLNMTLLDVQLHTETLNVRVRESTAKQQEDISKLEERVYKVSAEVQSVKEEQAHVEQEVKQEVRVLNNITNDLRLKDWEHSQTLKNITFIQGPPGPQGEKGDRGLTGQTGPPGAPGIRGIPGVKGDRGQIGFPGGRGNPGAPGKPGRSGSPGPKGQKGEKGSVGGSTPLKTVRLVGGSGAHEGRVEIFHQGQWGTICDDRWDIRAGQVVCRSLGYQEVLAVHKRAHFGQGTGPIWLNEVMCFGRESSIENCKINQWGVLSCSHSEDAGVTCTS
In words: BLI Octet, 25 C, antibody captured. (In general: Biolayer interferometry detects binding as a change in optical thickness at a sensor tip.)

For assay [6], the target named is T4, human MSR1 extracellular domain expressed with a N-terminal nonahistidine tag (human, UniProt P21757 77-451).
T4 construct: extracellular domain; also called His9-hMSR1; His-hMSR1
T4 sequence: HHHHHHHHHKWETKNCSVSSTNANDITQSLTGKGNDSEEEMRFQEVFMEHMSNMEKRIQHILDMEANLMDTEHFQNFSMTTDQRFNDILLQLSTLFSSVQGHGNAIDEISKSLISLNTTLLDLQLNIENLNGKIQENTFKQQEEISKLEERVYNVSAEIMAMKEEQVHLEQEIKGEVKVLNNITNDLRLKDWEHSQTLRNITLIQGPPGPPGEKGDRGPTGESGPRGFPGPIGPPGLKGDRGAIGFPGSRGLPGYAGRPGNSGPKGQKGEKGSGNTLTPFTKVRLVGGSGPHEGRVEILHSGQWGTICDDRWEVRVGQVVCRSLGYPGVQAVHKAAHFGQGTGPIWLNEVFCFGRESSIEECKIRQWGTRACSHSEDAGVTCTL
Briefly: competition ELISA, plate-coated His9-hMSR1; 1 µM antibody, competitor ligand 10 nM Ox-LDL. (An ELISA detects its analyte on a solid surface through an enzyme-linked reagent.)
Protocol: (§3) Buffer alone was also added to wells on each coat. […] This assay was conducted in four different assay runs.
(§4) Data analysis was performed using a sigmoidal dose-response model within Prism™ software (GraphPad).

Assay [7] has as its target T4, human MSR1 extracellular domain …. Briefly: competition ELISA, plate-coated His9-hMSR1; 300 nM antibody, competitor ligand biot-AGE-BSA.
Protocol: as §3, §4

B1: H1H27759P-N297Q (antibody, V domains shown)
VH: EVQLVESGGGFVQPGGSLRLSCAASGFTFSSYAMSWVRQAPGKGLEWVSAISGTGSNTYYADSVKGRFTISRDNSKNTLYLQMNSLRAEDTAVYYCAKDRVTTVTYYFDYWGQGTLVTVSS
VL: not shown
notes: Human IgG1 Fc with N297Q; tied by the numerical identifier; also called H1H27759P2-N297Q; H1xH27759P2
Broadly, the Kd is the constant that tells how readily two partners part at equilibrium. The term koff denotes the rate constant with which the complex falls apart. What is called kon is the second-order rate constant of association. The t½ is how long it takes for the measured level to halve. In assay [1], B1 registered a Kd of 2.2 nM, a koff of 0.000919 s⁻¹, a kon of 417000 M⁻¹ s⁻¹ and a t½ of 13 min. Further, in assay [2], the Kd stood at 2.03 nM, the koff is 0.00122 s⁻¹, the association rate constant (kon) was 599000 M⁻¹ s⁻¹ and the t½ was determined as 9 min. For the same molecule, in assay [3], the Kd came out at 1.28 nM, the koff was found to be 0.00188 s⁻¹, the kon came out at 1.46e+06 M⁻¹ s⁻¹ and the t½ stood at 6 min. In assay [4], this molecule came in with a dissociation constant (Kd) of 2.24 nM, a koff of 0.0023 s⁻¹, a kon of 1.03e+06 M⁻¹ s⁻¹ and a t½ of 5 min. In addition, the binding result in assay [5] is on record as “no binding (tested: 50 nM)”.

B2: H1H27739P-N297Q (antibody, V domains shown)
VH: EVQLVESGGGLVQPGGSLRLSCTASGFTFSSYAMSWVRQAPGKGLEWVSAISGTGSSTYFTDSVKGRFAISRDNSKNTLYLQMNSLRAEDTAVYYCAKDGEWLSTVTLFDYWGQGTLVTVSS
VL: EIVMTQSPATLSVSPGERATLSCRASQSVSSNLAWYQQKPGQAPRLLIYGASTRATGIPARFSGSGSGTDFTLTISSLQSEDFALYYCQQYFIWPPHPTFGPGTKVDIKR
notes: Human IgG1 Fc with N297Q point mutation
With B2, the equilibrium dissociation constant (Kd) in assay [1] is 0.41 nM; in assay [2] it was 2.74 nM; in assay [3] it was 0.374 nM; in assay [4], 3.72 nM. In addition, the koff was determined as 0.000144 s⁻¹ in assay [1], 0.00103 s⁻¹ in assay [2], 0.000842 s⁻¹ in assay [3] and 0.00288 s⁻¹ in assay [4]. Also, the kon is 352000 M⁻¹ s⁻¹ in assay [1], 375000 M⁻¹ s⁻¹ in assay [2], 2.25e+06 M⁻¹ s⁻¹ in assay [3] and 776000 M⁻¹ s⁻¹ in assay [4]. For the same molecule, the t½ in assay [1] was 80 min; in assay [2], 11 min; in assay [3] it was 14 min; in assay [4], 4 min. For the same molecule, the binding result in assay [5] was “no binding (tested: 50 nM)”.

B3: H1H27756P-N297Q (antibody, V domains shown)
VH: QVQLVESGGGVVQPGRSLRLSCAASGFTFSNYDMHWVRQAPGKGLEWMAVISYDGINKYYADSVKGRFTISRDNSKNTLYLQMNSLRAEDTAVYYCAKGTYSWYFDLWGRGTLVTVSS
VL: not shown
notes: as for B2
For the molecule B3, the Kd in assay [1] is 6.81 nM; in assay [2] it was 0.406 nM; in assay [3] it was 3.97 nM; in assay [4] it was 1.16 nM. Also, the t½ in assay [1] was found to be 5 min; in assay [2], 94 min; in assay [3] it was 4 min; in assay [4], 15 min. The binding result in assay [5] was “no binding (tested: 50 nM)”.

B4: H1H27762P-N297Q (antibody, V domains shown)
VH: QVQLVQSGAEVKKPGSSVKVSCKASGGTFSRYDISWVRQAPGQGLEWMGGIIPIFGTSNYAQKFQGRVTITTDESTSTVYMELSSLRSEDTAVYYCARGGRYGWFDPWGQGTLVTVSS
VL: not shown
notes: Human IgG1 Fc with N297Q; tied by the numerical identifier; also called H1H27762P2-N297Q; H1H27762P2
With B4, in assay [1], binding was put at a Kd of 1.59 nM, the koff amounted to 0.00199 s⁻¹, the kon was determined as 1.25e+06 M⁻¹ s⁻¹ and the t½ was determined as 6 min. In assay [2], this molecule yielded a Kd of 1.85 nM, a koff of 0.00183 s⁻¹, an on-rate constant (kon) of 989000 M⁻¹ s⁻¹ and a t½ of 6 min. In assay [3], this molecule returned a Kd of 0.698 nM, a koff of 0.00197 s⁻¹, a kon of 2.82e+06 M⁻¹ s⁻¹ and a t½ of 6 min. In addition, in assay [4], the equilibrium dissociation constant (Kd) amounted to 0.64 nM, the off-rate (koff) came out at 0.00196 s⁻¹, the kon was determined as 3.06e+06 M⁻¹ s⁻¹ and the t½ is 6 min. The binding result in assay [5] is “no binding (tested: 50 nM)”.

B5: H1H27766P-N297Q (antibody, V domains shown)
VH: EVQLVESGGGLVQPGGSLRLSCAASGFTFSSFAMSWVRQAPGKELEWVSSISGRGGSTYYADSVRGRFTISRDNSKITLYLQMNSLRAEDTAVYYCAKDIVFRYTSSAYWYFDLWGRGTLVTVSS
VL: not shown
notes: Human IgG1 Fc with N297Q; tied by the numerical identifier; also called H1H27766P2-N297Q; H1H27766P2
In assay [1], B5 displayed a Kd of 0.506 nM, a koff of 7.94e-05 s⁻¹, an on-rate (kon) of 157000 M⁻¹ s⁻¹ and a t½ of 145 min. In assay [2], this molecule showed a Kd of 0.0796 nM, a koff of 1.86e-05 s⁻¹, a kon of 234000 M⁻¹ s⁻¹ and a t½ of 620 min. Further, in assay [3], binding was put at a Kd of 1.72 nM, the koff turned out to be 0.000589 s⁻¹, the kon was 343000 M⁻¹ s⁻¹ and the t½ turned out to be 20 min. In assay [4], binding was characterised by a dissociation constant (Kd) of 0.227 nM, the off-rate constant (koff) was 7.72e-05 s⁻¹, the association rate constant (kon) is 340000 M⁻¹ s⁻¹ and the t½ worked out at 150 min. For the same molecule, the binding result in assay [5] is reported as “no binding (tested: 50 nM)”.

B6: H1H27773P2-N297Q (antibody, human IgG1, V domains shown)
VH: EVQLVESGGGLVQPGGSLRLSCAASGFTFSSYAMNWVRQAPGKGLEWVSAISGSGDSTYYADSVKGRFTISRDNSRTTLSLQLNSLRAEDTAVYYCAKDRLLWFGELGSPFHYWGQGTLVTVSS
VL: not shown
notes: Human IgG1 Fc with N297Q; also called H1H27773P-N297Q
For the molecule B6, the entries for the “% Blocking” value in assay [6] and in assay [7] were 2% and 1%, respectively.

B7: H1H27760P-N297Q (antibody, V domains shown)
VH: EVQLVESGGGLVQPGRSLRLSCAASGFTFDAYAMHWVRQAPGKGLEWVSGISWNSGSIGYADSVKGRFTISRDNAKNSLYLQMNSLREEDTALYYCAKDKILELYYYGMDVWGQGTTVTVSS
VL: not shown
notes: Human IgG1 Fc with N297Q; tied by the numerical identifier; also called H1H27760P2-N297Q; H1H27760P2
In the case of B7, the Kd in assay [1] stood at 1.93 nM; in assay [2], 2 nM; in assay [4], 1.74 nM. In addition, the t½ in assay [1] came out at 16 min; in assay [2] it was 13 min; in assay [3], 7 min; in assay [4], 6 min. Moreover, the binding result in assay [5] is given as “no binding (tested: 50 nM)”.

B8: H1H27734P-N297Q (antibody, V domains shown)
VH: EVQLVESRGGLVQPGGSLRLSCAASGFTFSSYAMSWVRQAPGKGLEWVSAISGSGGSTFYADSVKGRFTISRDNSKNTVYLQMNSLRAEDTAVYYCAKALVLRFLEWLGDYWGQGTLVTVSS
VL: DIQMTQSPSTLSASVGDRVTITCRASQSISSWLAWFQQKPGKAPKLLIYKASSLESGVPSRFSGSGSGTEFTLTISSLQPDDFATYYCQQYKSYWTFGQGTKVEIKR
notes: as for B2
In assay [1], B8 registered a Kd of 6.88 nM, a koff of 0.00291 s⁻¹, an on-rate constant (kon) of 423000 M⁻¹ s⁻¹ and a t½ of 4 min. In assay [2], this molecule gave an equilibrium dissociation constant (Kd) of 2.64 nM, an off-rate (koff) of 0.00111 s⁻¹, a kon of 420000 M⁻¹ s⁻¹ and a t½ of 10 min. In assay [3], the Kd came to 3.37 nM, the koff was 0.0032 s⁻¹, the kon is 949000 M⁻¹ s⁻¹ and the t½ worked out at 4 min. Also, in assay [4], the equilibrium dissociation constant (Kd) amounted to 1.74 nM, the off-rate (koff) was 0.0019 s⁻¹, the on-rate (kon) is 1.09e+06 M⁻¹ s⁻¹ and the t½ was 6 min. Besides, the binding result in assay [5] is reported as “no binding (tested: 50 nM)”.

Values taken from patent publication US20190367631A1 (Regeneron, published 2019).
